This assay relates to primary rat osteoblasts. The experiment in a line: Primary rat osteoblast proliferation assay ([3H]thymidine incorporation, cell number). The format is cell-based. The text has this: Primary rat osteoblasts were isolated from 20 day fetal rat calvariae. (The use of animals for these studies was approved by the Auckland Animal Ethics Committee.) Calvariae were excised and the frontal and parietal bones, free of suture and periosteal tissue, were collected and sequentially digested using collagenase as previously described (Cornish J, Callon K E, Lin C Q X, Xiao C L, Mulvey T B, Cooper G J S, Reid I R Trifluoroacetate, a contaminant in puritied proteins, inhibits proliferation of osteoblasts and chondrocytes. Amer J Physiol Endocrinol Metab 277: E779-E783, 1999). Primary rat osteoblasts were grown in DMEM supplemented with 10% FCS, 50 U/ml penicillin and 50 μg/ml streptomycin. After 48 hour, the medium was changed to MEM. Confluence was reached within 5-6 days, at which time the cells were subcultured into 10 cm culture plates for RNA preparation or 24 well plates for proliferation assays.
Primary rat osteoblasts were subcultured into 24 well plates at a density of 5×10^4 cells/ml/well in MEM, 5% FCS for 24 hours. Cells were growth arrested in MEM, 0.1% bovine serum albumin (BSA) for 24 hour and then fresh media and experimental compounds were added for a further 24 hours. Cells were pulsed with [^3H]thymidine (0.5 μCi/well) 2 hours before the end of the experimental incubation. The experiment was terminated and both cell numbers and thymidine incorporation were assessed. Cell numbers were analysed by detaching cells from the wells by exposure to trypsin/EDTA (0.05%/0.53 mM) for approximately 5 minutes at 37° C. Counting was performed in a hemocytometer chamber. Results are expressed per well. [^3H]Thymidine incorporation was analysed by washing the cells in MEM followed by the addition of 10% trichloroacetic acid. The precipitate was washed twice with ethnol:ether (3:1) and the wells desiccated at room temperature. The residue was dissolved in 2M KOH at 55° C. for 30 minutes, neutralized with 1M HCl, and an aliquot counted for radioactivity. Results are expressed as dpm per well. Each experiment was performed at least three times using experimental groups consisting of at least six wells.
Data are presented as mean±SEM. The significance of differences between groups was determined using Student's t tests for unpaired data and a 5% significance level. The comparisons to be made in each experiment were specified a priori, so no adjustment for multiple comparisons was necessary. Where several experiments have been shown in one figure, the data are expressed as the ratio of results in treatment groups to those in the control group and the ‘P’ values shown were calculated using the data from the individual experiments, before the data were pooled.
On the technique in general: Dividing cells build labelled thymidine or BrdU into new DNA.

Entries after “also recorded” stand apart in the source; their conditions may differ.

On to “ACTH1-24: melanocortin peptide purchased from Bachem California (SYSMEHFRWGKPVGKKRRPVKVYP; Corticotropin; UniProt P01189 138-161, looked up, fragment)”, for which the “antagonism of α-MSH stimulated [3H] thymidine uptake” value (10^−7 M against α-MSH 10^−8 M and 10^−7 M, growth arrested primary rat osteoblasts) is “inhibited two doses of α-MSH (10^−8 M and 10^−7 M) from stimulating [^3H] thymidine uptake; also recorded: antagonise α-MSH stimulated stimulation of thymidine incorporation”. The “thymidine incorporation or cell numbers (proliferation)” value (growth arrested primary rat osteoblasts, 10^−7 M, alone) is reported as “did not stimulate thymidine incorporation or cells numbers; also recorded: no significant effect on osteoblast proliferation”.

B1: agouti protein: recombinant mouse agouti protein, antagonist of melanocortin peptides coupling MC1-R, MC2-R, and MC4-R (protein, UniProt Q03288 23-131, looked up)
Agouti-signaling protein: HLALEETLGDDRSLRSNSSMNSLDFSSVSIVALNKKSKKISRKEAEKRKRSSKKKASMKKVARPPPPSPCVATRDSCKPPAPACCDPCASCQCRFFGSACTCRVLNPNC
As to B1, for the setting “agouti protein 10^−9 M-10^−7 M, primary rat osteoblasts”, the “antagonism of α-MSH stimulated osteoblast proliferation” value is listed as “did not antagonise α-MSH stimulated osteoblast proliferation”. Further, the thymidine incorporation result (growth arrested primary rat osteoblasts, 10^−9-10^−7 M, alone) is given as “significantly stimulated thymidine incorporation”. Besides, under “primary rat osteoblasts”, the “additivity with α-MSH stimulated thymidine incorporation” value was “not additive”.

The record behind these values is patent US20090118194A1, “Measurement of melanocortin peptides and uses thereof” (Auckland UniServices Limited, priority 2002, published 2009).
